# Measurements reported in publication PMC10580930.
# Tests used:
# [1] = system: C[C@@H](O)[C@H]1C(=O)N2C(C(=O)O)=C(SCCN=CN)C[C@H]12; assay: purified protein; settings: phosphate-buffered solution (1x), 50 µM ZnSO4, room temperature
# [2] = system: C[C@@H](O)[C@H]1C(=O)N2C(C(=O)O)=C(S[C@@H]3CN[C@H](C(=O)N(C)C)C3)[C@H](C)[C@H]12; assay: purified protein; settings: phosphate-buffered solution (1x), 50 µM ZnSO4, room temperature
substance,measurement,setting,value
VIM-2 (Pseudomonas aeruginosa),Km,[1],10.31 µM
same,kcat,[1],11.1 s⁻¹
same,kcat/Km,[1],1.1e+06 M⁻¹ s⁻¹
same,Km,[2],5.37 µM
same,kcat,[2],2.1 s⁻¹
same,kcat/Km,[2],400000 M⁻¹ s⁻¹
